Data taken from paper PMC7022404.
pKd: −log10 of the molar value.

What was measured:
[1] = target: Linker-protein G (LPG) (Streptococcus sp.); assay: QCM-D; LPG physisorbed on a silica-coated QCM-D crystal, trastuzumab injected, PBS washes between injections; 1 x PBS pH 7.4, room temperature; Kelvin-Voigt model for mass and thickness
[2] = target: Recombinant protein G (PG) from Streptococcus sp. (Streptococcus sp.) (UniProt P19909); assay: QCM-D; PG covalently immobilised (APTES, glutaraldehyde) on a silica-coated QCM-D crystal, deactivated with Tris/ethanolamine, blocked with BSA; trastuzumab 1 ug/mL in 1 x PBS injected; Kelvin-Voigt model for mass and thickness
[3] = target: Humanized anti-HER2 monoclonal antibody trastuzumab (human); assay: SPR

| Substance | Mass Deposited for Bound Antibody [1] | Mass Deposited for Bound Antibody [2] | Thickness of Bound Antibody [2] | Half-Life t1/2 [3] | pKd [3] | koff [3] | kon [3] |
| --- | --- | --- | --- | --- | --- | --- | --- |
| Humanized anti-HER2 monoclonal antibody trastuzumab | 1200 ng/cm^2 | 451 ng/cm^2 | 7.43 nm |  |  |  |  |
| Recombinant protein G (PG) from Streptococcus sp. (from UniProt P19909 34-562) (natural protein) |  |  |  | 1.4 min | 8.34 | 0.00824 s⁻¹ | 1.79e+06 M⁻¹ s⁻¹ |
